In patent publication US20160244525A1 (Genentech, published 2016):

Legend:
FGFR3-IIIc [1] = biological target: T1, FGFR3-IIIc (human, UniProt P22607 23-375, limits assumed); assay: surface plasmon resonance (Biacore)
T1 construct: also called human FGFR3-IIIc
T1 sequence: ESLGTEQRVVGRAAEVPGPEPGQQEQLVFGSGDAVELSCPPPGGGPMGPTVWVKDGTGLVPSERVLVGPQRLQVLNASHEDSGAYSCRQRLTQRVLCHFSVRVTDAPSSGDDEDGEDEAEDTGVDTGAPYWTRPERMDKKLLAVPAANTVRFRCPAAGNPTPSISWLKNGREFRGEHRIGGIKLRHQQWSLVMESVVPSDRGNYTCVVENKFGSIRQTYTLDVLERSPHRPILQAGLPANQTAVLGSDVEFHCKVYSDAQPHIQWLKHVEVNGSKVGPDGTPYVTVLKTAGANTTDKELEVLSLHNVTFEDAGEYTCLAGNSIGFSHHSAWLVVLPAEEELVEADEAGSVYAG

FGFR3-IIIc [2] = biological target: T1, FGFR3-IIIc; assay: SPR
Experimental: (§1) A saturated amount of anti-human Fc monoclonal antibody was immobilized onto a CM5 biosensor chip by following the product instructions. […] FGFR antigens of various concentrations were injected at a flow rate 30 μL/min. After each binding cycle, flow cells were regenerated using 3M MgCl₂. Kinetic analyses were performed using the T100 evaluation software to obtain the kinetic and affinity constants.
(§2) 1.3 variants were determined by capturing FGFR4-Fc and flowing the antibody Fab fragments (Table 12).

FGFR1-IIIb [3] = biological target: T2, FGFR1-IIIb (human, UniProt P11362-19 22-376, limits assumed); assay: SPR
T2 construct: Soluble FGFR antigen in SPR
T2 sequence (looked up): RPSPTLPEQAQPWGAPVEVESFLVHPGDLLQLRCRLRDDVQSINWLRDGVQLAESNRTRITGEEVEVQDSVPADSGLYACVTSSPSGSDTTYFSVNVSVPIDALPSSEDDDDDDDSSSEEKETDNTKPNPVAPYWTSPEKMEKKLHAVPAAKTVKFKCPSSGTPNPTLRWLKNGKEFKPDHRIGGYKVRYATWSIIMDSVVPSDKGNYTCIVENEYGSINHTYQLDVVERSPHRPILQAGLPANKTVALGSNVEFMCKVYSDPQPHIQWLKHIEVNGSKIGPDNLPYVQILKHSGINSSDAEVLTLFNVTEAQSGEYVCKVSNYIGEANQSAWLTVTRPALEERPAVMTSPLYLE
Experimental: as §1, §2

FGFR2-IIIc [4] = biological target: T3, FGFR2-IIIc (human, UniProt P21802 22-377); assay: SPR
T3 construct: also called human FGFR2-IIIc; FGFR2-IIIc-His
Experimental: as §1, §2

FGFR2-IIIc [5] = biological target: T3, FGFR2-IIIc; assay: blocking ELISA: FGFR2-IIIc-Fc captured on an anti-human Fc plate, antibody titrated, FGF-1 (with heparin) is the blocked ligand, bound FGF-1 read as OD450
Experimental: (§3) The plate was washed 5 times before being added with the antibody and FGF ligand mixtures, which was prepared as 49 μL 100 ng/mL FGF ligand, 1 μL 25 mg/mL Heparin (Sigma-Aldrich) and 50 μL antibody dilutions. After shaking at RT for 2 h, the plate was washed 5 times. Bound ligand was detected by subsequent incubations at RT with 0.5 μg/mL biotinylated anti-FGF antibodies (R&D Biosystems) for 0.5 h, 1:2,500-diluted Streptavidin-HRP (Invitrogen) for 0.5 h and the TMB substrate until enough color development.

FGFR3-IIIc [6] = biological target: T1, FGFR3-IIIc; assay: blocking ELISA: FGFR3-IIIc-Fc captured on an anti-human Fc plate, antibody titrated, FGF-1 (with heparin) is the blocked ligand, bound FGF-1 read as OD450
Experimental: as §3

FGFR3-IIIc [7] = biological target: T1, FGFR3-IIIc; assay: SPR (Biacore T100), IgG captured by anti-human Fc, FGFR flowed
Experimental: as §1

FGFR2-IIIc [8] = biological target: T3, FGFR2-IIIc; assay: as above
Experimental: as §1

FGFR2-IIIb (D2D3) = biological target: T4, FGFR2-IIIb (D2D3) (human); assay: SPR (Biacore)
T4 construct: also called human FGFR2-IIIb ECD (residue 140-369)
T4 chain: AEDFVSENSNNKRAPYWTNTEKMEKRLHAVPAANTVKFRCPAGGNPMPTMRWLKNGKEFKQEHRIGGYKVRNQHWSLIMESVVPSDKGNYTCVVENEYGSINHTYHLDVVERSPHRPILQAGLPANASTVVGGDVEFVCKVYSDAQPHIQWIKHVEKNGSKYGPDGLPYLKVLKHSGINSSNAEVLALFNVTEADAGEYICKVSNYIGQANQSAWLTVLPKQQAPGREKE

FGFR1-IIIb [9] = biological target: T2, FGFR1-IIIb; assay: SPR (Biacore T100), IgG captured by anti-human Fc, FGFR flowed
Experimental: as §1

hKLB = biological target: T5, hKLB; assay: FACS on 293 cells expressing hKLB, antibody at 0.8 ug/ml
T5 construct: also called human beta-Klotho on 293 cells
T5 sequence (chain, as listed by the source limits assumed): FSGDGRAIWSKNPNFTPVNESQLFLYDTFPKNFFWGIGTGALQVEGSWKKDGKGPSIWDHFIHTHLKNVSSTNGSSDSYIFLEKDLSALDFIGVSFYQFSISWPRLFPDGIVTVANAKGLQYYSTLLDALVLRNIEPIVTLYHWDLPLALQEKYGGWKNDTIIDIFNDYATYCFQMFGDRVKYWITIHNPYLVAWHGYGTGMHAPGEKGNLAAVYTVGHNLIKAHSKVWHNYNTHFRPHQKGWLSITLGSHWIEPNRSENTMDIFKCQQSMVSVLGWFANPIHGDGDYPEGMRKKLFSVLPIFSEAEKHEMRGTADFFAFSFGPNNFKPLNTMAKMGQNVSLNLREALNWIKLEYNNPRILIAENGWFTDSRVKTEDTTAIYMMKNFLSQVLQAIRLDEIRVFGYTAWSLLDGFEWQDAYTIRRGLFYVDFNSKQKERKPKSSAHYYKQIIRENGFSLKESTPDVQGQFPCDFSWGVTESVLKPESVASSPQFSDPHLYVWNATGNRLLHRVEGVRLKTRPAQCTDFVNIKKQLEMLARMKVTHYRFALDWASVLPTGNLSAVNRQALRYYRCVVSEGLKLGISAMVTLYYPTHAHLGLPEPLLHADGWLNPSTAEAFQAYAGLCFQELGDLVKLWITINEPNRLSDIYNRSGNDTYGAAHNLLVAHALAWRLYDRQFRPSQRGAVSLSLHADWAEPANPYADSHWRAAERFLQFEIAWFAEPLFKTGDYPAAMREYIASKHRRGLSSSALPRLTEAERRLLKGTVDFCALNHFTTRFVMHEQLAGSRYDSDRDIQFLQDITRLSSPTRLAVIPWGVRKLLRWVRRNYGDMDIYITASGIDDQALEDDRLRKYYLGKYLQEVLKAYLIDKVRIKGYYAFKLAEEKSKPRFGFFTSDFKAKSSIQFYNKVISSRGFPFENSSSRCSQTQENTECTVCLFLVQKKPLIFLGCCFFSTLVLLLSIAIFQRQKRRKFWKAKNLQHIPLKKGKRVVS

T3 sequence (P21802 22-377 limits assumed): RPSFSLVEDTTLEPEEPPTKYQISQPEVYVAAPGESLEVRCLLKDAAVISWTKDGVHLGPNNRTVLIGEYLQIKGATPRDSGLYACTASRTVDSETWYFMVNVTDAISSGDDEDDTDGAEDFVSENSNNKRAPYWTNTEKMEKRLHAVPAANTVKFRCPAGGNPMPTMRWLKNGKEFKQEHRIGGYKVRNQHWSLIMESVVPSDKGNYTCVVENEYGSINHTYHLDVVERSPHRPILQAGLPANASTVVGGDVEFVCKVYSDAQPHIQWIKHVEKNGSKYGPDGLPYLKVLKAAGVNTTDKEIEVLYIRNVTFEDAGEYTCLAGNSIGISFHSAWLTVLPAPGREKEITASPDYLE

B1: 2B1.1.2 (antibody, V domains shown)
VH: EVQLVESGGGLVQPGGSLRLSCAASGFTFTSTGISWVRQAPGKGLEWVGRYWAWDGSTNYADSVKGRFTISADTSKNTAYLQMNSLRAEDTAVYYCARTYGIYDTYDNYTEYVMDYWGQGTLVTVSS
VL: DIQMTQSPSSLSASVGDRVTITCRASQDVDTSLAWYKQKPGKAPKLLIYSASFLYSGVPSRFSGSGSGTDFTLTISSLQPEDFATYYCQQSTGHPQTFGQGTKVEIKR
Kd (FGFR3-IIIc [1]): 0.0908 nM

B2: 2B1.1.4 (antibody, V domains shown)
VH: EVQLVESGGGLVQPGGSLRLSCAASGFTFTSTGISWVRQAPGKGLEWVGRYWAWDGSTNYADSVKGRFTISADTSKNTAYLQMNSLRAEDTAVYYCARTYGIYDIYGGYTEYVMDYWGQGTLVTVSS
VL: DIQMTQSPSSLSASVGDRVTITCRASQDVDTSLAWYKQKPGKAPKLLIYSASFLYSGVPSRFSGSGSGTDFTLTISSLQPEDFATYYCQQSTGHPQTFGQGTKVEIKR
Kd (FGFR3-IIIc [1]): 0.153 nM

B3: 2B1.1.8 (antibody, V domains shown)
VH: EVQLVESGGGLVQPGGSLRLSCAASGFPFTSLGISWVRQAPGKGLEWVGRYWAWDGSTNYADSVKGRFTISADTSKNTAYLQMNSLRAEDTAVYYCARTYGIYDIYEKYTEYVMDYWGQGTLVTVSS
VL: DIQMTQSPSSLSASVGDRVTITCRASQDVDTSLAWYKQKPGKAPKLLIYSASFLYSGVPSRFSGSGSGTDFTLTISSLQPEDFATYYCQQSTGHPQTFGQGTKVEIKR
Kd (FGFR3-IIIc [1]): 0.112 nM

B4: 2B1.1.10 (antibody, V domains shown)
VH: EVQLVESGGGLVQPGGSLRLSCAASGFPFTSQGISWVRQAPGKGLEWVGRYWAWDGSTNYADSVKGRFTISADTSKNTAYLQMNSLRAEDTAVYYCARTYGIYDTYDKYTEYVMDYWGQGTLVTVSS
VL: DIQMTQSPSSLSASVGDRVTITCRASQDVDTSLAWYKQKPGKAPKLLIYSASFLYSGVPSRFSGSGSGTDFTLTISSLQPEDFATYYCQQSTGHPQTFGQGTKVEIKR
Kd (FGFR3-IIIc [1]): 0.198 nM

B5: 2B1.1.12 (antibody, V domains shown)
VH: EVQLVESGGGLVQPGGSLRLSCAASGFPFTSTGISWVRQAPGKGLEWVGRYWAWDGSTNYADSVKGRFTISADTSKNTAYLQMNSLRAEDTAVYYCARTYGIYDTYDMYTEYVMDYWGQGTLVTVSS
VL: DIQMTQSPSSLSASVGDRVTITCRASQDVDTSLAWYKQKPGKAPKLLIYSASFLYSGVPSRFSGSGSGTDFTLTISSLQPEDFATYYCQQSTGHPQTFGQGTKVEIKR
Kd (FGFR3-IIIc [1]): 0.142 nM

B6: 2B.1.1.6 (antibody, human IgG1, kappa, V domains shown)
VH: EVQLVESGGGLVQPGGSLRLSCAASGFTFTSTGISWVRQAPGKGLEWVGRYWAWDGSTNYADSVKGRFTISADTSKNTAYLQMNSLRAEDTAVYYCARTYGIYDTYDEYTEYVMDYWGQGTLVTVSS
VL: DIQMTQSPSSLSASVGDRVTITCRASQDVDTSLAWYKQKPGKAPKLLIYSASFLYSGVPSRFSGSGSGTDFTLTISSLQPEDFATYYCQQSTGHPQTFGQGTKVEIKR
notes: Full IgG1/kappa chains
Kd (FGFR3-IIIc [1]): 0.0796 nM

B7: 2B.1.3 (antibody, human IgG1, kappa, V domains shown)
VH: EVQLVESGGGLVQPGGSLRLSCAASGFTFTSTGISWVRQAPGKGLEWVGRTHLGDGSTNYADSVKGRFTISADTSKNTAYLQMNSLRAEDTAVYYCARTYGIYDLYVDYTEYVMDYWGQGTLVTVSS
VL: DIQMTQSPSSLSASVGDRVTITCRASQDVDTSLAWYKQKPGKAPKLLIYSASFLYSGVPSRFSGSGSGTDFTLTISSLQPEDFATYYCQQSTGHPQTFGQGTKVEIKR
notes: Full IgG1/kappa chains; also called Mab 2B.1.3
Kd (FGFR3-IIIc [2]): 0.07 nM
binding result (FGFR1-IIIb [3]): no binding
Kd (FGFR2-IIIc [4]): 2 nM
IC50 (read off the curve) (FGFR2-IIIc [5]): ~5 nM
IC50 (read off the curve) (FGFR3-IIIc [6]): 2 to 3 nM
Kd (FGFR3-IIIc [1]): 0.0834 nM
Kd (FGFR3-IIIc [7]): 0.07 nM
Kd (FGFR2-IIIc [8]): 2 nM
Kd (FGFR2-IIIb (D2D3)): 0.71 nM

B8: 2B.1.3.10 (antibody, human IgG1, kappa, V domains shown)
VH: EVQLVESGGGLVQPGGSLRLSCAASGFPFTSQGISWVRQAPGKGLEWVGRTHLGDGSTNYADSVKGRFTISADTSKNTAYLQMNSLRAEDTAVYYCARTYGIYDTYDKYTEYVMDYWGQGTLVTVSS
VL: DIQMTQSPSSLSASVGDRVTITCRASQDVDTSLAWYKQKPGKAPKLLIYSASFLYSGVPSRFSGSGSGTDFTLTISSLQPEDFATYYCQQSTGHPQTFGQGTKVEIKR
notes: Full IgG1/kappa chains; also called Mab 2B.1.3.10
IC50 (read off the curve) (FGFR3-IIIc [6]): 2 to 3 nM
Kd (FGFR3-IIIc [7]): 0.25 nM
binding result (FGFR1-IIIb [9]): no binding (tested: 500 nM)
Kd (FGFR2-IIIc [8]): 1.1 nM

B9: 2B.1.3.12 (antibody, human IgG1, kappa, V domains shown)
VH: EVQLVESGGGLVQPGGSLRLSCAASGFPFTSTGISWVRQAPGKGLEWVGRTHLGDGSTNYADSVKGRFTISADTSKNTAYLQMNSLRAEDTAVYYCARTYGIYDTYDMYTEYVMDYWGQGTLVTVSS
VL: DIQMTQSPSSLSASVGDRVTITCRASQDVDTSLAWYKQKPGKAPKLLIYSASFLYSGVPSRFSGSGSGTDFTLTISSLQPEDFATYYCQQSTGHPQTFGQGTKVEIKR
notes: Full IgG1/kappa chains; also called Mab 2B.1.3.12
Kd (FGFR3-IIIc [2]): 0.72 nM
Kd (FGFR2-IIIc [4]): 6.1 nM
IC50 (read off the curve) (FGFR3-IIIc [6]): 2 to 3 nM
Kd (FGFR3-IIIc [1]): 0.28 nM
Kd (FGFR3-IIIc [7]): 0.72 nM
binding result (FGFR1-IIIb [9]): no binding (tested: 500 nM)
Kd (FGFR2-IIIc [8]): 6.1 nM

B10: 5F8 (antibody, V domains shown)
VH: EVQLQQSGTELVRPGASVKLSCTSSDFNIKDTYIHWVKQRPEQGLDWLGRIDPANGNTKYDPKFQGKAAMTSDTSSNTAYLRLSSLTSEDTAVYYCASSGNYGAMDYWGQGTSVTVSS
VL: ESVLTQSPALMSASLGEKVTMTCRASSSVNHMYWYQQKSDASPKLWIYYTSTLAPGVPARFSGSGSGNSYSLTISSMEGEDAATYYCQQFTISPSMYTFGGGTKLEIK
binding result (hKLB): binds

B11: 8H7 (antibody, V domains shown)
VH: QVQLQQPGAEIVKPGASVRLSCKASGYSFTSYWIHWVKQRPGQGLEWIGEIDPSVSNSNYNQKFKGKATLTADKSSSTAYMQLSGLTSEDSAVYFCVRLGVMVYGSSPFWFAYWGQGTLVTVSA
VL: DIVMTQSQKFMSTSVGDRVSITCKASQFVSDAVAWYQQKPGQSPKLLICSASYRYTGVPDRFTGSGSGTDFTFTISSVRTEDLAVYYCQQHYIVPYTFGGGTTLEIE
binding result (hKLB): binds

B12: 24A1 (antibody, V domains shown)
VH: QVQLKQSGAELVRPGTSVTLSCKASGYTFTDYEMHWMKQTPVYGLEWIGAIWPENADSVYNQKFKGKVTLTADKSSSTAYMDLRSLTSEDSAVYYCTREGGNYWGQGTTLTVSS
VL: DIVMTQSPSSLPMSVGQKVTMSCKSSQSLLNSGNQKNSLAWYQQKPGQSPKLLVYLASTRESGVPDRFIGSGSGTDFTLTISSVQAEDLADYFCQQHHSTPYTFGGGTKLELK
binding result (hKLB): binds

B13: 14C6 (antibody, V domains shown)
VH: QIQLQQSGAELMKPGASVRMSCKASGYTFSSYWIEWVKQRSGHGLEWIGEIFPGGGSTIYNENFRDKATFTADTSSNTAYMQLSSLTSEDSAVYFCARRGYYDAAWFDYWGQGTLVTVSA
VL: QIVLTQSPAIMSASPGERVTLTCSASSSLSSSYLYWYQQKPGSSPKLWIYGASNLASGVPGRFSGSGSGTSYSLTISSMEAEDAASYFCHQWSSYPLTFGSGTKLELK
binding result (hKLB): binds

B14: 25F7 (antibody, V domains shown)
VH: EVQLQQSGAELLKPGASVRLSCTASGFNIQDTFTHWVRQRPEQGLEWIGRIDPSNGNTKYDPKFQGKAKILADTSSNTAYLQLIGLTSEDTAVYYCASRALGNGYAMDYWGQGTSVTVSS
VL: DIQMTQSSSYLSVSLGGRVTITCKASDHINNWLAWYQQKPGNAPRLLISGASNLETGIPSRFSGSGSGKDYTLTITSLQTEDVATYYCQQYWNTPFTFGSGTKLEIK
binding result (hKLB): binds

B15: 11D4 (antibody, V domains shown)
VH: QVQVKESGPGLVAPSQSLSITCTVSGFSLTNYGVSWIRQPPGKGLEWLGVIWGDGSINYHSALISRLTITKDNSKSQVFLKLNSLEADDTATYYCAKTHDWFDYWGQGTLVTVSA
VL: DIQMTQTPSSLSASLGDRVTINCRASQDISNYFNWYQQKPNGTIKLLIYYTSRLQSGVPSRFSGSGSGTDYSLTISNLEQEDKATYFCHQVRTLPWTFGGGTKLEIK
binding result (hKLB): binds
